The record followed here is paper PMC3431625.

A word on the Kd: it is the free concentration of one partner at which half of the binding sites on the other are occupied at equilibrium, for simple one-to-one binding.

This experiment deals with Recombinant α2β1 integrin (UniProt P17301). Put plainly: ELISA. (ELISA stands for enzyme-linked immunosorbent assay.)
Sequence of Recombinant α2β1 integrin (P17301 30-1181, chain 1 of 2): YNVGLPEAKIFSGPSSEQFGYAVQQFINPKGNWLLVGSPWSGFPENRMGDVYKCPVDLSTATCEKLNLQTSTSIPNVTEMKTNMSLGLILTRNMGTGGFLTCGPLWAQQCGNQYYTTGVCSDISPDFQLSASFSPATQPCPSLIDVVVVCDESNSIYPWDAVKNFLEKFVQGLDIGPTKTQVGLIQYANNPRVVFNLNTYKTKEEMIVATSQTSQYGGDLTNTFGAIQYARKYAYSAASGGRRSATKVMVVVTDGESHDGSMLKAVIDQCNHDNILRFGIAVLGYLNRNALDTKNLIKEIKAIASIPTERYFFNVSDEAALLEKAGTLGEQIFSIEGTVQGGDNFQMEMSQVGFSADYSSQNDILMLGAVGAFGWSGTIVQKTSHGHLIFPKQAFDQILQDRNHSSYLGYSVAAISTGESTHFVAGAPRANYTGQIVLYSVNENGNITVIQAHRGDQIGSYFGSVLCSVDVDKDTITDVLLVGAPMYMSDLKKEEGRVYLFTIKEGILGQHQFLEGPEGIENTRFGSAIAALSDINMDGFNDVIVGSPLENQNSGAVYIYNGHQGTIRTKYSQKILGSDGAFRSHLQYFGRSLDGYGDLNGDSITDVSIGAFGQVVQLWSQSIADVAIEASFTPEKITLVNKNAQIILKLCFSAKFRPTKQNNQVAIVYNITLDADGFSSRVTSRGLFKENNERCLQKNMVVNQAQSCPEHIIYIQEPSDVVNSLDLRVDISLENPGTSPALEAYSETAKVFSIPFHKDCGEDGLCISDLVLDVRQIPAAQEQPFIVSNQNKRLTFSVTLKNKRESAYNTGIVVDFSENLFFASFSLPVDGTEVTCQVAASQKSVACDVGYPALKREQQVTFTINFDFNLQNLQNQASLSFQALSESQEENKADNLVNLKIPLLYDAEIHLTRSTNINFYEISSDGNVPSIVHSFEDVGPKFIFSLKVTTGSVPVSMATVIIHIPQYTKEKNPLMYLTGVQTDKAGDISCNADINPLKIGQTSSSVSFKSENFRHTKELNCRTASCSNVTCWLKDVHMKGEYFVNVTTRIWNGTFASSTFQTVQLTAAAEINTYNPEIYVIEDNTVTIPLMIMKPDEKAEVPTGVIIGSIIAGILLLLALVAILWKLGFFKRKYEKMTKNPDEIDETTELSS
Sequence of Recombinant α2β1 integrin (P05556 21-798, chain 2 of 2, further chain): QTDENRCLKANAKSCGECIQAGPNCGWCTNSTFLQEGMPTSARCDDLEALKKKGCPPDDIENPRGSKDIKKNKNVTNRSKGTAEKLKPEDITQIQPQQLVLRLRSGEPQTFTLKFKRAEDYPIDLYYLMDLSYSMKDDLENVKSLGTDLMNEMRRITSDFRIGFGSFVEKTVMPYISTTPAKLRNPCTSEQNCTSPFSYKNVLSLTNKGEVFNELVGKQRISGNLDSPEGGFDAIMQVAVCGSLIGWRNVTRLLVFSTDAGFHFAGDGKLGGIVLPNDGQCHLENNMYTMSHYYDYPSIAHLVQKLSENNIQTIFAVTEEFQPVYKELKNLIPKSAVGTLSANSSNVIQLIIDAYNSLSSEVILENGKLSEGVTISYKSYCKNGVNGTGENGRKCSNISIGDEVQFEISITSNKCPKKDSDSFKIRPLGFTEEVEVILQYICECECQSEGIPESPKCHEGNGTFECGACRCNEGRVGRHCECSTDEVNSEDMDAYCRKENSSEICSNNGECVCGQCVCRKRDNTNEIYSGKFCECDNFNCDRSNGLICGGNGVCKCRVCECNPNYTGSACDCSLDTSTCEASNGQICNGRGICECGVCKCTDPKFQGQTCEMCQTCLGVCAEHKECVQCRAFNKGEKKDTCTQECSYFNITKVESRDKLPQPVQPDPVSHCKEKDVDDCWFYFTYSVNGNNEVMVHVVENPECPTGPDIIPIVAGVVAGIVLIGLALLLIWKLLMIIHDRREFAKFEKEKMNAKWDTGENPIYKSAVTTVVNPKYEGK

As for “Biotinylated collagen type I (from UniProt P02453;P02465) (natural protein)”, the Kd was 1.5 nM.
